Results reported in paper PMC4698670.

Assays:
[1] = biological target: T1, recombinant human PRX1 (Sigma-Aldrich) (human) (UniProt Q06830)
T1 sequence: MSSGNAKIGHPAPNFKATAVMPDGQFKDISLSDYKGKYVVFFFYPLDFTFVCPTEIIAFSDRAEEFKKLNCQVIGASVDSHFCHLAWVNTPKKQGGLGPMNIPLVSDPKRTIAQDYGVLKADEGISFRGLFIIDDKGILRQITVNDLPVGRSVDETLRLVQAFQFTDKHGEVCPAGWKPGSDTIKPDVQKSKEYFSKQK

[2] = biological target: T1, recombinant human PRX1 (Sigma-Aldrich) (human); remark: listed apart in the source

decrease of PRX1 enzymatic activity (NADPH consumption rate) by Mst1 in the presence of fortilin (ΔL7R) (PRX1 alone: 75.3% decrease) [1]: 77.9 % decrease
PRX1 peroxidase activity in vitro (NADPH consumption rate, reaction mix normalized to 1.00; PRX1 alone 4.38) with fortilin (ΔL7R) added [2]: 5.9 A.U.
B1: recombinant fortilin_(ΔL7R) tagged with Strep-tag (natural protein)
chain: MIIYRDRISHDEMFSDIYKIREIADGLCLEVEGKMVSRTEGNIDDSLIGGNASAEGPEGEGTESTVITGVDIVMNHHLQETSFTKEAYKKYIKDYMKSIKGKLEEQRPERVKPFMTGAAEQIKHILANFKNYQFFIGENMNPDGMVALLDYREDGVTPYMIFFKDGLEMEKC
